Reference: patent publication US20220175647A1, “COSMETIC PREPARATION CONTAINING ULTRAVIOLET WAVELENGTH CONVERSION MATERIAL AND WATER-SOLUBLE THICKENING AGENT” (Shiseido Company, Ltd., priority 2019, published 2022)
“And” between values parts separate entries of the source, which are not always exact repeats. Equal entries are not always repeated.

How the values were obtained:
[1] = Absorption and emission spectrum peak wavelengths of UV wavelength conversion substances; type: physicochemical
Human dermal fibroblasts [2] = test: Cell activity (AlamarBlue) of cells UV-irradiated through a solution of UV wavelength conversion substance; type: cell-based; details: UV 0 to 100 mJ/cm^2, FIG. 3
Protocol: The UV wavelength conversion substances (3) and (4) were dispersed in alcohol to prepare 5% and 10% dispersions.
(§1) 1. Human dermal fibroblasts and human skin keratinocytes purchased from Kurabo Industries Ltd. were used. A cell suspension (1 mL) stored in liquid nitrogen was thawed in a water bath (37° C.) to an extent that small ice pellets remained, and then diluted with 9 mL of warm medium. 2. The diluted suspension was mixed gently and then transferred to a T75 flask and incubated overnight at 37° C. 3. The next day, the medium was replaced with 10 mL of fresh medium. 4. The medium was replaced periodically (once every 2 days for fibroblasts and once every 2 to 3 days for keratinocytes) and cell proliferation was continued. Meanwhile, the cells were observed using a microscope, and it was confirmed that the cells grew in the correct form. 5. After the cells reached about 80% confluence, the cells were passaged. The cells were passaged by washing the cells once with 10 mL of warm PBS, adding 5 mL of warm trypsin to a T75 flask, covering the bottom of the flask with a trypsin solution, followed by aspirating at room temperature for 1 minute. 6. The flask was allowed to stand in an oven at 37° C. for (maximum) 2 minutes for fibroblasts and (maximum) 7 minutes for keratinocytes. The cells were observed using a microscope and confirmed to be small and oval. 7. […]

Human dermal fibroblasts [3] = test: Restoration of cell activity decreased by prior UV irradiation (AlamarBlue); type: cell-based; details: pre-irradiation 400 mJ/cm^2 without substance, then UV 0 to 200 mJ/cm^2 through 0.4% or 2% C-phycocyanin; effect equivalent at both concentrations; FIG. 5
Protocol: as §1, with “7. Thereafter, the side of the T75 flask was lightly tapped to release the cells.” for “7.”

Substance	absorption spectrum peak wavelength [1] [nm]	emission spectrum peak wavelength [1]	cell activity (relative fluorescence intensity, AlamarBlue) (Human dermal fibroblasts [2]; 0.4% C-phycocyanin solution)	cell activity (relative fluorescence intensity, AlamarBlue) (Human dermal fibroblasts [2]; 2% C-phycocyanin solution, compared to no UV irradiation)	cell activity after activity was once decreased by UV (Human dermal fibroblasts [3])
B-phycoerythrin	305	570 nm and 610 nm	–	–	–
C-phycocyanin	350	640 nm and 700 nm	the decrease in cell activity was suppressed	the cell activity was even increased	cell activity was recovered
